Biological target: T1, BSA V (Sigma Co.) (bovine, UniProt P02769 25-607)
T1 construct: Negative control of the ELISA; also called BSA control; bovine serum albumin
Test: ELISA on plated matrix protein, anti-FITC/biotin, streptavidin/HRP, chemiluminescence on film
Method: An ELISA (Enzyme-linked Immunosorbant Assay) was used to measure binding of zsig37 to various matrix proteins and complement C1q. The matrix proteins used were Bovine Collagen Type I (Becton Dickinson, Lincoln Park, N.J.) laminin, vitronectin, fibronectin, human collagen Types II, III, IV, V, VI (Chemicon International, Temecula, Calif.). BSA V (Sigma Co.) was used as a negative control. Just prior to use, the proteins were diluted in 2×PBS (Phosphate Buffered Saline, Sigma Co.) to 100 μg/ml and adjusted to pH 7.2 with 0.1 N NaOH. Each protein sample was quadruplicate plated (100 μl/well) into a 96 well plate. The plate was allowed to dry overnight in a laminar flow hood and washed 3 times with 400 μl of 5 mg/ml BSA in 1×PBS and blotted dry. Zsig37 was FITC labeled according to manufacturer's instruction (Pierce, Rockford, Ill.). Into each well was added 100 μl of 1.8 μg/ml zsig37-FITC in 5% BSA, PBS. The plates were incubated for 1.5 hours at room temperature then washed 3 time with 5% BSA, PBS. To each well was then added 100 μl of 1:400 mouse anti-FITC/Biotin (Sigma Co.). The plate was incubated 1.5 hours at room temperature and washed 3 times with 5% BSA, PBS. The plate was then incubated with 100 μl of 1:1000 streptavidin/HRP (Amersham, Piscataway, N.J.) for 1 hour and washed 3 times with 5% BSA, PBS. […]

T1 sequence (P02769 25-607 limits assumed): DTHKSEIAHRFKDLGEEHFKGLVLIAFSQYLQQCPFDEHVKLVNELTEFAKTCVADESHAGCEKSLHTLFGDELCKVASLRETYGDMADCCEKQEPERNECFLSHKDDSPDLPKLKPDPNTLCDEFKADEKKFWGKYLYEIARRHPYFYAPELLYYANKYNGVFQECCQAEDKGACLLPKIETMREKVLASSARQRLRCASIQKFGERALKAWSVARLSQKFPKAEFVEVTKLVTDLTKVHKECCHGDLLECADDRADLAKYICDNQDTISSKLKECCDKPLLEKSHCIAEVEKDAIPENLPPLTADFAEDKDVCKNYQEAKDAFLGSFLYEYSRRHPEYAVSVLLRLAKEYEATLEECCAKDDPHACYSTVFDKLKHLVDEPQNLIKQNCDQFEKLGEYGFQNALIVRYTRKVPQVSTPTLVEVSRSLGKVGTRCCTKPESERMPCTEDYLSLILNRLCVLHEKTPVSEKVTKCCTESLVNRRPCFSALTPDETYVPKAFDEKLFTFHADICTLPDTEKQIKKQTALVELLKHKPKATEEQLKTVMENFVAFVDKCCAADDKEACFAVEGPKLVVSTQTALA

B1: zsig37-FITC (ligand)
chain: LVLSRVPHVQGEQQEWEGTEELPSPPDHAERAEEQHEKYRPSQDQGLPASRCLRCCDPGTSMYPATAVPQINITILKGEKGDRGDRGLQGKYGKTGSAGARGHTGPKGQKGSMGAPGERCKSHYAAFSVGRKKPMHSNHYYQTVIFDTEFVNLYDHFNMFTGKFYCYVPGLYFFSLNVHTWNQKETYLHIMKNEEEVVILFAQVGDRSIMQSQSLMLELREQDQVWVRLYKGERENAIFSEELDTYITFSGYLVKHATEP
modifications: FITC label (sites not given)
notes: 22-281 is used here; also called FITC labeled zsig37; FITC tagged Zsig37 protein
B1: no binding (tested: 1.8 µg/ml zsig37-FITC).

— US20030144208A1 (ZymoGenetics, published 2003)
